Biological target: the molecule itself
Assay: crystal structure

B1: MukB-D (MukB construct 566–863: hinge domain with part of the coiled coil domain) (domain or fragment, Escherichia coli, UniProt P22523 566-863, looked up)
chain: IASLSDSVSNAREERMALRQEQEQLQSRIQSLMQRAPVWLAAQNSLNQLSEQCGEEFTSSQDVTEYLQQLLEREREAIVERDEVGARKNAVDEEIERLSQPGGSEDQRLNALAERFGGVLLSEIYDDVSLEDAPYFSALYGPSRHAIVVPDLSQVTEHLEGLTDCPEDLYLIEGDPQSFDDSVFSVDELEKAVVVKIADRQWRYSRFPEVPLFGRAARESRIESLHAEREVLSERFATLSFDVQKTQRLHQAFSRFIGSHLAVAFESDPEAEIRQLNSRRVELERALSNHENDNQQQR
B1: binds.

From publication PMC4335309 (Journal of molecular biology, 2009)
